Results as given in patent US20160272693A1 (ZEALAND PHARMA A S, published 2016).
*1 amine or outer side, *2 acyl side, *3 side chain or, on linkers, in order; H or OH if unused. Bridges are numbered along the chain shown (N, C = ends). [ ]: non-standard residue; d: D form. The star is where a group is joined. C20 diacid = O=C(O)CCCCCCCCCCCCCCCCCCC(=O)*; γGlu = O=C(O)[C@H](CCC(=O)[*:2])N[*:1]; Hyp = O=C(O)[C@@H]1C[C@@H](O)CN1; NMeI = CC[C@H](C)[C@H](NC)C(=O)O; Sar = CNCC(=O)O

Target: T1, human amylin receptor 3 (hAMYR3), hCTR2 co-expressed with human receptor activity modifying protein 3 (hRAMP3) (human, UniProt P30988 25-474; O60896 24-148)
T1 sequence (looked up) 1: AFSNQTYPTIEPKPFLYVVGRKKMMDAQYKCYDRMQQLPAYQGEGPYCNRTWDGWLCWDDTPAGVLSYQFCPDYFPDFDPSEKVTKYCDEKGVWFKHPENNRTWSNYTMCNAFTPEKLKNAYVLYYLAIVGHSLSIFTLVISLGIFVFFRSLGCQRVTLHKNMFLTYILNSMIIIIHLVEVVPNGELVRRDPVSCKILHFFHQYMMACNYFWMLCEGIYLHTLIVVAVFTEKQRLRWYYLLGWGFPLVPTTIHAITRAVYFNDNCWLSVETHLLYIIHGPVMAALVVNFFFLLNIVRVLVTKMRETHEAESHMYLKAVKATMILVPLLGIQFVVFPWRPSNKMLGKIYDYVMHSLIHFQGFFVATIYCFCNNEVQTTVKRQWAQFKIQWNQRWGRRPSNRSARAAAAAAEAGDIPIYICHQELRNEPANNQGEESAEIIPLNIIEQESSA
T1 sequence (looked up) 2: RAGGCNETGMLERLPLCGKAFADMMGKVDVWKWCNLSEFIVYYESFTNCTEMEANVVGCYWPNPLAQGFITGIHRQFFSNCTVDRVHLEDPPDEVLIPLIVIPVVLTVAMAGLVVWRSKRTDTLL
Assay: cell-based or functional assay

B1: [19CD]-isoGlu-R-C( )-GTAT-C( )-ATERLAHFLNRSSF-Gly(Me)-A-Ile(Me)-LSSTEVGSNT-Hyp-NH2 (Compd. 6) (peptide)
peptide: {C20 diacid}-[γGlu]RCGTATCATERLAHFLNRSSF[Sar]A[NMeI]LSSTEVGSNT[Hyp]-NH2
modifications: disulfide 3-8
SMILES: CC[C@H](C)[C@@H](C(=O)N[C@@H](CC(C)C)C(=O)N[C@@H](CO)C(=O)N[C@@H](CO)C(=O)N[C@H](C(=O)N[C@@H](CCC(=O)O)C(=O)N[C@H](C(=O)NCC(=O)N[C@@H](CO)C(=O)N[C@@H](CC(N)=O)C(=O)N[C@H](C(=O)N1C[C@H](O)C[C@H]1C(N)=O)[C@@H](C)O)C(C)C)[C@@H](C)O)N(C)C(=O)[C@H](C)NC(=O)CN(C)C(=O)[C@H](Cc1ccccc1)NC(=O)[C@H](CO)NC(=O)[C@H](CO)NC(=O)[C@H](CCCNC(=N)N)NC(=O)[C@H](CC(N)=O)NC(=O)[C@H](CC(C)C)NC(=O)[C@H](Cc1ccccc1)NC(=O)[C@H](Cc1c[nH]cn1)NC(=O)[C@H](C)NC(=O)[C@H](CC(C)C)NC(=O)[C@H](CCCNC(=N)N)NC(=O)[C@H](CCC(=O)O)NC(=O)[C@@H](NC(=O)[C@H](C)NC(=O)[C@@H]1CSSC[C@H](NC(=O)[C@H](CCCNC(=N)N)NC(=O)CC[C@H](NC(=O)CCCCCCCCCCCCCCCCCCC(=O)O)C(=O)O)C(=O)NCC(=O)N[C@@H]([C@@H](C)O)C(=O)N[C@@H](C)C(=O)N[C@@H]([C@@H](C)O)C(=O)N1)[C@@H](C)O
- hAMYR3 EC50 (nM); cAMP induction: 0.22 nM

B2: [19CD]-isoGlu-R-C( )-NTAT-C( )-ATQRLADFLQRSSF-Gly(Me)-A-Ile(Me)-LSSTEVGSNTP-NH2 (Compd. 65) (peptide)
peptide: {C20 diacid-γGlu}-RCNTATCATQRLADFLQRSSF[Sar]A[NMeI]LSSTEVGSNTP-NH2
modifications: disulfide 2-7
SMILES: CC[C@H](C)[C@@H](C(=O)N[C@@H](CC(C)C)C(=O)N[C@@H](CO)C(=O)N[C@@H](CO)C(=O)N[C@H](C(=O)N[C@@H](CCC(=O)O)C(=O)N[C@H](C(=O)NCC(=O)N[C@@H](CO)C(=O)N[C@@H](CC(N)=O)C(=O)N[C@H](C(=O)N1CCC[C@H]1C(N)=O)[C@@H](C)O)C(C)C)[C@@H](C)O)N(C)C(=O)[C@H](C)NC(=O)CN(C)C(=O)[C@H](Cc1ccccc1)NC(=O)[C@H](CO)NC(=O)[C@H](CO)NC(=O)[C@H](CCCNC(=N)N)NC(=O)[C@H](CCC(N)=O)NC(=O)[C@H](CC(C)C)NC(=O)[C@H](Cc1ccccc1)NC(=O)[C@H](CC(=O)O)NC(=O)[C@H](C)NC(=O)[C@H](CC(C)C)NC(=O)[C@H](CCCNC(=N)N)NC(=O)[C@H](CCC(N)=O)NC(=O)[C@@H](NC(=O)[C@H](C)NC(=O)[C@@H]1CSSC[C@H](NC(=O)[C@H](CCCNC(=N)N)NC(=O)CC[C@H](NC(=O)CCCCCCCCCCCCCCCCCCC(=O)O)C(=O)O)C(=O)N[C@@H](CC(N)=O)C(=O)N[C@@H]([C@@H](C)O)C(=O)N[C@@H](C)C(=O)N[C@@H]([C@@H](C)O)C(=O)N1)[C@@H](C)O
- hAMYR3 EC50 (nM); cAMP induction: 0.26 nM

B3: [19CD]-isoGlu-R-C( )-PTAT-C( )-ATERLAHFLQRSSF-Gly(Me)-A-Ile(Me)-LSSTEVGSNT-Hyp-NH2 (Compd. 63) (peptide)
peptide: {C20 diacid}-[γGlu]RCPTATCATERLAHFLQRSSF[Sar]A[NMeI]LSSTEVGSNT[Hyp]-NH2
modifications: disulfide 3-8
SMILES: CC[C@H](C)[C@@H](C(=O)N[C@@H](CC(C)C)C(=O)N[C@@H](CO)C(=O)N[C@@H](CO)C(=O)N[C@H](C(=O)N[C@@H](CCC(=O)O)C(=O)N[C@H](C(=O)NCC(=O)N[C@@H](CO)C(=O)N[C@@H](CC(N)=O)C(=O)N[C@H](C(=O)N1C[C@H](O)C[C@H]1C(N)=O)[C@@H](C)O)C(C)C)[C@@H](C)O)N(C)C(=O)[C@H](C)NC(=O)CN(C)C(=O)[C@H](Cc1ccccc1)NC(=O)[C@H](CO)NC(=O)[C@H](CO)NC(=O)[C@H](CCCNC(=N)N)NC(=O)[C@H](CCC(N)=O)NC(=O)[C@H](CC(C)C)NC(=O)[C@H](Cc1ccccc1)NC(=O)[C@H](Cc1c[nH]cn1)NC(=O)[C@H](C)NC(=O)[C@H](CC(C)C)NC(=O)[C@H](CCCNC(=N)N)NC(=O)[C@H](CCC(=O)O)NC(=O)[C@@H](NC(=O)[C@H](C)NC(=O)[C@@H]1CSSC[C@H](NC(=O)[C@H](CCCNC(=N)N)NC(=O)CC[C@H](NC(=O)CCCCCCCCCCCCCCCCCCC(=O)O)C(=O)O)C(=O)N2CCC[C@H]2C(=O)N[C@@H]([C@@H](C)O)C(=O)N[C@@H](C)C(=O)N[C@@H]([C@@H](C)O)C(=O)N1)[C@@H](C)O
- hAMYR3 EC50 (nM); cAMP induction: 0.37 nM

B4: [19CD]-isoGlu-R-C( )-PTAT-C( )-ATQRLAHFLQRSSF-Gly(Me)-A-Ile(Me)-LSSTEVGSNT-Hyp-NH2 (Compd. 64) (peptide)
peptide: {C20 diacid}-[γGlu]RCPTATCATQRLAHFLQRSSF[Sar]A[NMeI]LSSTEVGSNT[Hyp]-NH2
modifications: disulfide 3-8
SMILES: CC[C@H](C)[C@@H](C(=O)N[C@@H](CC(C)C)C(=O)N[C@@H](CO)C(=O)N[C@@H](CO)C(=O)N[C@H](C(=O)N[C@@H](CCC(=O)O)C(=O)N[C@H](C(=O)NCC(=O)N[C@@H](CO)C(=O)N[C@@H](CC(N)=O)C(=O)N[C@H](C(=O)N1C[C@H](O)C[C@H]1C(N)=O)[C@@H](C)O)C(C)C)[C@@H](C)O)N(C)C(=O)[C@H](C)NC(=O)CN(C)C(=O)[C@H](Cc1ccccc1)NC(=O)[C@H](CO)NC(=O)[C@H](CO)NC(=O)[C@H](CCCNC(=N)N)NC(=O)[C@H](CCC(N)=O)NC(=O)[C@H](CC(C)C)NC(=O)[C@H](Cc1ccccc1)NC(=O)[C@H](Cc1c[nH]cn1)NC(=O)[C@H](C)NC(=O)[C@H](CC(C)C)NC(=O)[C@H](CCCNC(=N)N)NC(=O)[C@H](CCC(N)=O)NC(=O)[C@@H](NC(=O)[C@H](C)NC(=O)[C@@H]1CSSC[C@H](NC(=O)[C@H](CCCNC(=N)N)NC(=O)CC[C@H](NC(=O)CCCCCCCCCCCCCCCCCCC(=O)O)C(=O)O)C(=O)N2CCC[C@H]2C(=O)N[C@@H]([C@@H](C)O)C(=O)N[C@@H](C)C(=O)N[C@@H]([C@@H](C)O)C(=O)N1)[C@@H](C)O
- hAMYR3 EC50 (nM); cAMP induction: 0.15 nM

B5: [19CD]-isoGlu-R-C( )-NTAT-C( )-ATQRLAHFLQRSSF-Gly(Me)-A-Ile(Me)-LSSTEVGSNTP-NH2 (Compd. 61) (peptide)
peptide: {C20 diacid}-[γGlu]RCNTATCATQRLAHFLQRSSF[Sar]A[NMeI]LSSTEVGSNTP-NH2
modifications: disulfide 3-8
SMILES: CC[C@H](C)[C@@H](C(=O)N[C@@H](CC(C)C)C(=O)N[C@@H](CO)C(=O)N[C@@H](CO)C(=O)N[C@H](C(=O)N[C@@H](CCC(=O)O)C(=O)N[C@H](C(=O)NCC(=O)N[C@@H](CO)C(=O)N[C@@H](CC(N)=O)C(=O)N[C@H](C(=O)N1CCC[C@H]1C(N)=O)[C@@H](C)O)C(C)C)[C@@H](C)O)N(C)C(=O)[C@H](C)NC(=O)CN(C)C(=O)[C@H](Cc1ccccc1)NC(=O)[C@H](CO)NC(=O)[C@H](CO)NC(=O)[C@H](CCCNC(=N)N)NC(=O)[C@H](CCC(N)=O)NC(=O)[C@H](CC(C)C)NC(=O)[C@H](Cc1ccccc1)NC(=O)[C@H](Cc1c[nH]cn1)NC(=O)[C@H](C)NC(=O)[C@H](CC(C)C)NC(=O)[C@H](CCCNC(=N)N)NC(=O)[C@H](CCC(N)=O)NC(=O)[C@@H](NC(=O)[C@H](C)NC(=O)[C@@H]1CSSC[C@H](NC(=O)[C@H](CCCNC(=N)N)NC(=O)CC[C@H](NC(=O)CCCCCCCCCCCCCCCCCCC(=O)O)C(=O)O)C(=O)N[C@@H](CC(N)=O)C(=O)N[C@@H]([C@@H](C)O)C(=O)N[C@@H](C)C(=O)N[C@@H]([C@@H](C)O)C(=O)N1)[C@@H](C)O
- hAMYR3 EC50 (nM); cAMP induction: 0.17 nM

B6: [19CD]-isoGlu-R-C( )-NTAT-C( )-ATERLAHFLQRSSF-Gly(Me)-A-Ile(Me)-LSSTEVGSDT-Hyp-NH2 (Compd. 60) (peptide)
peptide: {C20 diacid-γGlu}-RCNTATCATERLAHFLQRSSF[Sar]A[NMeI]LSSTEVGSDT[Hyp]-NH2
modifications: disulfide 2-7
SMILES: CC[C@H](C)[C@@H](C(=O)N[C@@H](CC(C)C)C(=O)N[C@@H](CO)C(=O)N[C@@H](CO)C(=O)N[C@H](C(=O)N[C@@H](CCC(=O)O)C(=O)N[C@H](C(=O)NCC(=O)N[C@@H](CO)C(=O)N[C@@H](CC(=O)O)C(=O)N[C@H](C(=O)N1C[C@H](O)C[C@H]1C(N)=O)[C@@H](C)O)C(C)C)[C@@H](C)O)N(C)C(=O)[C@H](C)NC(=O)CN(C)C(=O)[C@H](Cc1ccccc1)NC(=O)[C@H](CO)NC(=O)[C@H](CO)NC(=O)[C@H](CCCNC(=N)N)NC(=O)[C@H](CCC(N)=O)NC(=O)[C@H](CC(C)C)NC(=O)[C@H](Cc1ccccc1)NC(=O)[C@H](Cc1c[nH]cn1)NC(=O)[C@H](C)NC(=O)[C@H](CC(C)C)NC(=O)[C@H](CCCNC(=N)N)NC(=O)[C@H](CCC(=O)O)NC(=O)[C@@H](NC(=O)[C@H](C)NC(=O)[C@@H]1CSSC[C@H](NC(=O)[C@H](CCCNC(=N)N)NC(=O)CC[C@H](NC(=O)CCCCCCCCCCCCCCCCCCC(=O)O)C(=O)O)C(=O)N[C@@H](CC(N)=O)C(=O)N[C@@H]([C@@H](C)O)C(=O)N[C@@H](C)C(=O)N[C@@H]([C@@H](C)O)C(=O)N1)[C@@H](C)O
- hAMYR3 EC50 (nM); cAMP induction: 0.09 nM

B7: [19CD]-isoGlu-R-C( )-NTAT-C( )-ATERLAHFLQRSSF-Gly(Me)-A-Ile(Me)-LSSTEVGSNTP-NH2 (Compd. 62) (peptide)
peptide: {C20 diacid-γGlu}-RCNTATCATERLAHFLQRSSF[Sar]A[NMeI]LSSTEVGSNTP-NH2
modifications: disulfide 2-7
SMILES: CC[C@H](C)[C@@H](C(=O)N[C@@H](CC(C)C)C(=O)N[C@@H](CO)C(=O)N[C@@H](CO)C(=O)N[C@H](C(=O)N[C@@H](CCC(=O)O)C(=O)N[C@H](C(=O)NCC(=O)N[C@@H](CO)C(=O)N[C@@H](CC(N)=O)C(=O)N[C@H](C(=O)N1CCC[C@H]1C(N)=O)[C@@H](C)O)C(C)C)[C@@H](C)O)N(C)C(=O)[C@H](C)NC(=O)CN(C)C(=O)[C@H](Cc1ccccc1)NC(=O)[C@H](CO)NC(=O)[C@H](CO)NC(=O)[C@H](CCCNC(=N)N)NC(=O)[C@H](CCC(N)=O)NC(=O)[C@H](CC(C)C)NC(=O)[C@H](Cc1ccccc1)NC(=O)[C@H](Cc1c[nH]cn1)NC(=O)[C@H](C)NC(=O)[C@H](CC(C)C)NC(=O)[C@H](CCCNC(=N)N)NC(=O)[C@H](CCC(=O)O)NC(=O)[C@@H](NC(=O)[C@H](C)NC(=O)[C@@H]1CSSC[C@H](NC(=O)[C@H](CCCNC(=N)N)NC(=O)CC[C@H](NC(=O)CCCCCCCCCCCCCCCCCCC(=O)O)C(=O)O)C(=O)N[C@@H](CC(N)=O)C(=O)N[C@@H]([C@@H](C)O)C(=O)N[C@@H](C)C(=O)N[C@@H]([C@@H](C)O)C(=O)N1)[C@@H](C)O
- hAMYR3 EC50 (nM); cAMP induction: 0.22 nM
